Assay results taken from paper PMC3408589 (Chemistry & biology, 2012).

Target: the molecule itself
Experiment: cross-linking

B1: untagged human ribonucleotide reductase α expressed in COS-1 cells (monocistronic cassette) (enzyme, UniProt P23921 1-792, looked up)
chain: MHVIKRDGRQERVMFDKITSRIQKLCYGLNMDFVDPAQITMKVIQGLYSGVTTVELDTLAAETAATLTTKHPDYAILAARIAVSNLHKETKKVFSDVMEDLYNYINPHNGKHSPMVAKSTLDIVLANKDRLNSAIIYDRDFSYNYFGFKTLERSYLLKINGKVAERPQHMLMRVSVGIHKEDIDAAIETYNLLSERWFTHASPTLFNAGTNRPQLSSCFLLSMKDDSIEGIYDTLKQCALISKSAGGIGVAVSCIRATGSYIAGTNGNSNGLVPMLRVYNNTARYVDQGGNKRPGAFAIYLEPWHLDIFEFLDLKKNTGKEEQRARDLFFALWIPDLFMKRVETNQDWSLMCPNECPGLDEVWGEEFEKLYASYEKQGRVRKVVKAQQLWYAIIESQTETGTPYMLYKDSCNRKSNQQNLGTIKCSNLCTEIVEYTSKDEVAVCNLASLALNMYVTSEHTYDFKKLAEVTKVVVRNLNKIIDINYYPVPEACLSNKRHRPIGIGVQGLADAFILMRYPFESAEAQLLNKQIFETIYYGALEASCDLAKEQGPYETYEGSPVSKGILQYDMWNVTPTDLWDWKVLKEKIAKYGIRNSLLIAPMPTASTAQILGNNESIEPYTSNIYTRRVLSGEFQIVNPHLLKDLTERGLWHEEMKNQIIACNGSIQSIPEIPDDLKQLYKTVWEISQKTVLKMAAERGAFIDQSQSLNIHIAEPNYGKLTSMHFYGWKQGLKTGMYYLRTRPAANPIQFTLNKEKLKDKEKVSKEEEEKERNTAAMVCSLENRDECLMCGS
  stoichiometry N: 6
